Measured values: patent US7211434B2, “Primitive neural stem cells and method for differentiation of stem cells to neural cells” (priority 2000, dated 2007)

What was measured:
Assay type in all cases: cell-based, mouse
[1] = system: ES-derived neural sphere colony cells; experiment: Subcloning of single ES-derived sphere colonies (secondary colony formation, self-renewal); conditions: subcloned single primary colonies; factor alone
Method: Self-renewal of primary colony-formin) ES cells was assessed as previously described (Tropepe et al., 1999). Single sphere colonies were isolated, mechanically dissociated into a single cell suspension in 0.2 ml of serum-free media containing various combinations of LIF (1000 U/ml), […] (10 ng/ml), heparin (2 (g/ml), EGF (20 ng/ml; Upstate Biotech) or B27 supplement (1X) and cultured in 96-well (Nunclon) plates. Secondary sphere colonies were quantified after 7–10 days. A similar procedure was used for repeated passaging experiments. Cell viability after a 7-day culture period (sphere colony assay) or after 4–24 hours (short-term ES differentiation assay) was determined using trypan blue exclusion (1:2 dilution of 0.4% trypan blue; Gibco).

ES cells = experiment: Primary neural sphere colony formation from ES cells in serum-free low-density culture, 7 days; conditions: for primary colony formation, factor alone: ES cells at relatively low cell densities, serum-free, 7 days in vitro
Method: For passaging ES cells, cultures were disaggregated with 0.05% trypsin dissolved in Tris-saline/EDTA for 5–10 minutes, mechanically dissociated, centrifuged and resuspended in culture medium.
Passaged ES cells were washed (2 times), centrifuged and resuspended in chemically defined serum-free media (Reynolds et al., 1992; Reynolds & Weiss, 1996) composed of a 1:1 mixture of Dulbecco's modified Eagle's medium (DMEM GIBCO) and F-12 nutrient (GIBCO) including 0.6% glucose (Sigma), 2 mM glutamine (GIBCO), 3 mM sodium bicarbonate (Sigma), and 5 mM HEPFS buffer (Sigma). A defined hormone and salt mixture (Sigma) that included insulin (25 (g/ml), transferrin (100 (g/ml), progestrone (20 nM), putrescine (60 (M), and selenium chloride (30 nM) was used instead of serum. ES cells were plated at various cell densities in 24-well culture plates (Nunclon) in the presence of either LIF (1000 U/ml), LIF+FGF2 (10 ng/ml; Upstate Biotech or Sigma) and 2 (g/ml heparin (Sigma), or in the absence of any exogenous growth factors. For short term (4–24 hours) neural differentiation, ES cells were plated in identical culture conditions in 24-well culture plates (Nunclon) that were precoated with poly-L-ornithine (15 μg/ml, Gibco).
Limiting dilution analysis was performed as previously described (Bellows and Aubin, 1989; Tropepe et al., 1999). ES cells were plated in 24-well plates containing LIF (1000 U/ml). Cell numbers were adjusted to give a starting concentration of 5000 cells/ml from which serial dilutions were made. Final cell dilutions ranged from 1000 cells per well to 1 cell per well in 0.5 ml aliquots. Cultures were left undisturbed for 7 days after which time the fraction of wells not containing sphere colonies for each cell plating density was calculated and those points were plotted against the number of cells plated per well. The number of cells required to form one sphere colony, which reflected the proportion of neural stem cells in the entire population, was then determined from the point at which the regression line crossed the 0.37 level (37%). That is […], where F0 is the fraction of wells without sphere colonies and x is the mean number of cells per well. Based on a Poisson distribution of cells, F0=0.37 corresponds to the dilution at which there is one neural stem cell per well. The linear relationship observed between the cell density and the number of sphere colonies generated (regression coefficient R^2=0.99) can be accounted for by the clonal proliferation of a single rare population of cells.
Neuro2a (a murine neuroblastoma cell line) cells were seeded at 1×10^6 cells per 100 mm petri dish and transiently transfected with 10 μg of plasmid DNA by means of LipofectAMINE (Gibco) according to the manufacturer's instructions. After 6 hours, the culture media was changed to 10 ml of DMEM+10% FBS (Gibco). Twenty-four hours after transfection, culture media was changed to […] of serum-free media. Seventy-two hours after transfection, cell supernatant was collected and centrifuged to remove cellular debris. Supernatant media was aliquoted and stored at −70° C. […] Thus data from the 20% (v/v) experiments were used for the analysis. The plasmids pCS-V2 (gift from Dr. R. Moon) Hoppler et al., 1996) and pCS-cer-I (a gift from Dr. E. De Robertis) (Belo et al., 1997) were used.

[2] = system: ES derived neural colonies; experiment: RT-PCR gene expression in ES-derived neural colonies; conditions: mCer-1 enriched media versus control media; data not shown
Method: Total RNA was isolated using the RNeasy extraction kit (Qiagen) and 1 μg of total RNA was used to synthesize cDNA with oligo-d(T)12-18 primers and MuMLV reverse transcriptase (Superscript II; Boehringer-Mannheim) at 42° C. for 1 hour. The PCR mixture (20 μl) consisted of 1 μl cDNA, 16 pmol 5 ″ primer, 16 pmol 3′ primer, specific for the gene in question 0.2 mM dNTP, 2 μl PCR reaction buffer and 0.8 U of Taq polymerase (Promega). cDNA was amplified in a thermal cycler (Perkin-Elmer) For all primer pairs denaturation for 30 sec at 94° C., annealing for 30 sec and extension at 72° C. was used. The sense and antisense primers, Mg^2 concentration, annealing temperature, extension time and number of PCR cycles were used for the following genes. Emx2: sense 5′-[…]-3′ (SEQ ID. No. 1), antisense 5′ […]-3′(SEQ. ID. No. 2), 1.65 mM Mg^2+, 56° C., 40 sec, 40 cycles. HoxB1: sense 5′-CCGGACCTTCGACTGGATG-3′(SEQ. ID. No. 3). antisense 5′-GGTCAGAGGCATCTCCAGC-3′(SEQ. ID. No. 4), 1.35 mM Mg^2+, 58° C., 40 sec, 40 cycles. Otx1: sense 5′-[…]-3′(SEQ. ID. No. 5). antisense 5′-[…]-3′(SEQ. ID. No. 6), 1.65 mM Mg^2+, 58° C., 40 sec, 40 cycles. Six3: sense 5′-[…]-3′(SEQ. ID. No. 7), antisense 5′-[…]-3′(SEQ. ID. No. 8), 1.35 mM Mg^2+, 56° C., 40 sec, 40 cycles. Brechyury: sense 5′-[…]-3′(SEQ. ID. No. 9), antisense 5′-[…]-3′(SEQ. ID. No. 10), 1.65 mM Mg^2+, 56° C., 1 min. 35 cycles. […]

B1: FGF2: fibroblast growth factor family growth factor, 10 ng/ml with heparin (protein)
chain: PALPEDGGAAFPPGHFKDPKRLYCKNGGFFLRIHPDGRVDGVREKSDPHVKLQLQAEERGVVSIKGVCANRYLAMKEDGRLLASKCVTEECFFFERLESNNYNTYRSRKYSSWYVALKRTGQYKLGSKTGPGQKAILFLPMSAKS
With B1 the “secondary neural stem cell colony formation” value [1] was “dependent upon the presence of exogenous FGF2”, the “primary colony formation, factor alone” value (ES cells) was “no cell colonies were generated” and the “primary colony formation, factor combined with LIF versus LIF alone” value (ES cells; combined with LIF) was “non-significant trend toward facilitating LIF-dependent colony formation”.

B2: CNTT: another member of the cytokine family of signaling molecules to which LIF belongs (protein, UniProt P26441 1-200, looked up)
Ciliary neurotrophic factor: MAFTEHSPLTPHRRDLCSRSIWLARKIRSDLTALTESYVKHQGLNKNINLDSADGMPVASTDQWSELTEAERLQENLQAYRTFHVLLARLLEDQQVHFTPTEGDFHQAIHTLLLQVAAFAYQIEELMILLEYKIPRNEADGMPINVGDGGLFEKKLWGLKVLQELSQWTVRSIHDLRFISSHQTGIPARGSHYIANNKKM
B2 was tested, and the “primary colony formation, factor alone” value (ES cells) was “unable to substitute as a colony-promoting factor”.

B3: BMP4: Human recombinant BMP4 protein provided by Genetics Institute Inc. (protein)
chain: SPKHHPQRSRKKNKNCRRHSLYVDFSDVGWNDWIVAPPGYQAFYCHGDCPFPLADHLNSTNHAIVQTLVNSVNSSIPKACCVPTELSAISMLYLDEYDKVVLKNYQEMVVEGCGCR
In the case of B3, the “further effect on number of sphere colonies at higher BMP4 concentration” value (ES cells; 5-fold increase in BMP4 concentration, LIF and FGF2) is reported as “did not further significantly attenuate the number of sphere colonies generated” and the “decrease in the number of sphere colonies generated” value (ES cells; BMP4 5 ng/ml, ES cell cultures containing LIF and FGF2, 20 cells/ul, 7 days) is reported as “greater than 50%”.

B4: mCer-1: mouse Cerberus-like protein in supernatant from transiently transfected Neuro2a cells (protein)
chain: DLCVDGCQSQGSLSFPLLERGRRDLHVANHEEAEDKPDLFVAVPHLMGTSLAGEGQRQRGKMLSRLGRFWKKPETEFYPPRDVESDHVSSGMQAVTQPADGRKVERSPLQEEAKRFWHRFMFRKGPAFQGVILPIKSHEVHWETCRTVPFNQTIAHEDCQKVVVQNNLCFGKCSSIRFPGEGADAHSFCSHCSPTKFTTVHLMLNCTSPTPVVKMVMQVEECQCMVKTERGEERLLLAGSQGSFIPGLPASKTNP
In the case of B4, the “Otx-1 expression in ES derived neural colonies” value [2] is reported as “express Otx-1” and the “increase in the numbers of primary neural stem cell colonies” value (ES cells; 20% (v/v) mCer-1 supernatant in 0.5 ml serum-free media+LIF, versus backbone vector supernatant) is reported as about 50%.

B5: Noggin: BMP protein antagonist; human recombinant Noggin protein provided by Regeneron Pharmaceuticals Inc. (protein)
chain: QHYLHIRPAPSDNLPLVDLIEHPDPIFDPKEKDLNETLLRSLLGGHYDPGFMATSPPEDRPGGGGGAAGGAEDLAELDQLLRQRPSGAMPSEIKGLEFSEGLAQGKKQRLSKKLRRKLQMWLWSQTFCPVLYAWNDLGSRFWPRYVKVGSCFSKRSCSVPEGMVCKPSKSVHLTVLRWRCQRRGGQRCGWIPIQYPIISECKCSC
With B5 the “increase in the number of sphere colonies generated” value (ES cells; Noggin 100 μg/ml, primary ES cell cultures with LIF+FGF2, 7 days) was 50% and the “further effect on number of sphere colonies with rising Noggin concentration” value (ES cells; Noggin from 10 μg/ml to 100 μg/ml) was “no additional increase in the numbers of sphere colonies generated”.
